Sequences and labels used below:
B1: Serine/threonine-protein kinase LATS1, residues 98 to 141; numbered along this chain, O95835 (parent)
chain: TSEVNPQMLQDLQAAGFDEDMVIQALQKTNNRSIEAAIEFISKM

± gives the uncertainty stated by the source.

The variants in the series derive from B1. As to the kind of experiment: abundance fitness (aPCA) (normalised: wild type 0, dead -1); higher = more abundant; growth selection in yeast, the domain comes from the species named. As to conditions: Homo sapiens.
Take TSEVNPQMLQDLQAAGFDEDMVIQALQKTNNRSIETAIEFISKM: the abundance fitness is -0.258 ± 0.053.
On to TSEVNPQMLQDLQAAGFDEDMVIQALQKTNNRSIERAIEFISKM, for which the abundance fitness is -0.404 ± 0.032.
Turning to TSEVNPQMLQDLQAAGFDEDMVIQALQKTNNRSIEMAIEFISKM, the abundance fitness is -0.316 ± 0.05.
As to TSEVNPQMLQDLQAAGFDEDMVIQALQKTNNRSIESAIEFISKM, the abundance fitness was -0.073 ± 0.05.
Consider TSEVNPQMLQDLQAAGFDEDMVIQALQKTNNRSIEHAIEFISKM, for which the abundance fitness was -0.206 ± 0.056.
For TSEVNPQMLQDLQAAGFDEDMVIQALQKTNNRSIEQAIEFISKM, the abundance fitness is -0.267 ± 0.056.
Turning to TSEVNPQMLQDLQAAGFDEDMVIQALQKTNNRSIEWAIEFISKM, the abundance fitness was -0.825 ± 0.06.
Take TSEVNPQMLQDLQAAGFDEDMVIQALQKTNNRSIELAIEFISKM: the abundance fitness was -0.388 ± 0.034.
The figure for TSEVNPQMLQDLQAAGFDEDMVIQALQKTNNRSIEKAIEFISKM is -0.21 ± 0.05; for TSEVNPQMLQDLQAAGFDEDMVIQALQKTNNRSIENAIEFISKM it is -0.327 ± 0.13.
As for TSEVNPQMLQDLQAAGFDEDMVIQALQKTNNRSIEYAIEFISKM, the abundance fitness was -0.632 ± 0.092.
Consider TSEVNPQMLQDLQAAGFDEDMVIQALQKTNNRSIEPAIEFISKM, for which the abundance fitness is -0.36 ± 0.04.
TSEVNPQMLQDLQAAGFDEDMVIQALQKTNNRSIEAGIEFISKM: the abundance fitness is -0.401 ± 0.032.
On to TSEVNPQMLQDLQAAGFDEDMVIQALQKTNNRSIEALIEFISKM, for which the abundance fitness is -0.728 ± 0.06.
As to TSEVNPQMLQDLQAAGFDEDMVIQALQKTNNRSIEAYIEFISKM, the abundance fitness was -0.762 ± 0.19.
For the variant TSEVNPQMLQDLQAAGFDEDMVIQALQKTNNRSIEARIEFISKM, the abundance fitness is -0.649 ± 0.046.
On to TSEVNPQMLQDLQAAGFDEDMVIQALQKTNNRSIEADIEFISKM, for which the abundance fitness was -0.43 ± 0.055.
The figure for TSEVNPQMLQDLQAAGFDEDMVIQALQKTNNRSIEAKIEFISKM is -1.03 ± 0.29.
In the case of TSEVNPQMLQDLQAAGFDEDMVIQALQKTNNRSIEASIEFISKM, the abundance fitness is -0.441 ± 0.05.
The figure for TSEVNPQMLQDLQAAGFDEDMVIQALQKTNNRSIEAHIEFISKM is -0.621 ± 0.18; for TSEVNPQMLQDLQAAGFDEDMVIQALQKTNNRSIEACIEFISKM it is -0.376 ± 0.058.
Take TSEVNPQMLQDLQAAGFDEDMVIQALQKTNNRSIEANIEFISKM: the abundance fitness was -0.446 ± 0.098.
With TSEVNPQMLQDLQAAGFDEDMVIQALQKTNNRSIEAWIEFISKM, the abundance fitness was -1.17 ± 0.09.
The figure for TSEVNPQMLQDLQAAGFDEDMVIQALQKTNNRSIEAQIEFISKM is -0.428 ± 0.051.
On to TSEVNPQMLQDLQAAGFDEDMVIQALQKTNNRSIEAPIEFISKM, for which the abundance fitness is -0.42 ± 0.1.
Consider TSEVNPQMLQDLQAAGFDEDMVIQALQKTNNRSIEATIEFISKM, for which the abundance fitness is -0.391 ± 0.08.
On to TSEVNPQMLQDLQAAGFDEDMVIQALQKTNNRSIEAVIEFISKM, for which the abundance fitness is -0.453 ± 0.037.
As for TSEVNPQMLQDLQAAGFDEDMVIQALQKTNNRSIEAAVEFISKM, the abundance fitness was -0.024 ± 0.038.
The figure for TSEVNPQMLQDLQAAGFDEDMVIQALQKTNNRSIEAAEEFISKM is -0.007 ± 0.048; for TSEVNPQMLQDLQAAGFDEDMVIQALQKTNNRSIEAAQEFISKM it is -0.021 ± 0.048; for TSEVNPQMLQDLQAAGFDEDMVIQALQKTNNRSIEAALEFISKM it is -0.078 ± 0.037.
Turning to TSEVNPQMLQDLQAAGFDEDMVIQALQKTNNRSIEAACEFISKM, the abundance fitness is -0.119 ± 0.043.
For TSEVNPQMLQDLQAAGFDEDMVIQALQKTNNRSIEAASEFISKM, the abundance fitness was -0.113 ± 0.042.
The figure for TSEVNPQMLQDLQAAGFDEDMVIQALQKTNNRSIEAAFEFISKM is -0.42 ± 0.072; for TSEVNPQMLQDLQAAGFDEDMVIQALQKTNNRSIEAAPEFISKM it is -0.147 ± 0.056.
As to TSEVNPQMLQDLQAAGFDEDMVIQALQKTNNRSIEAAAEFISKM, the abundance fitness is -0.048 ± 0.037.
The figure for TSEVNPQMLQDLQAAGFDEDMVIQALQKTNNRSIEAAMEFISKM is -0.016 ± 0.045.
With TSEVNPQMLQDLQAAGFDEDMVIQALQKTNNRSIEAAKEFISKM, the abundance fitness was 0.055 ± 0.048.
The figure for TSEVNPQMLQDLQAAGFDEDMVIQALQKTNNRSIEAAHEFISKM is -0.203 ± 0.076; for TSEVNPQMLQDLQAAGFDEDMVIQALQKTNNRSIEAAREFISKM it is 0.003 ± 0.03; for TSEVNPQMLQDLQAAGFDEDMVIQALQKTNNRSIEAAWEFISKM it is -0.339 ± 0.043.
As for TSEVNPQMLQDLQAAGFDEDMVIQALQKTNNRSIEAAGEFISKM, the abundance fitness was -0.169 ± 0.035.
As to TSEVNPQMLQDLQAAGFDEDMVIQALQKTNNRSIEAAIPFISKM, the abundance fitness was -0.483 ± 0.16.
For TSEVNPQMLQDLQAAGFDEDMVIQALQKTNNRSIEAAIMFISKM, the abundance fitness was -0.286 ± 0.093.
For the variant TSEVNPQMLQDLQAAGFDEDMVIQALQKTNNRSIEAAIGFISKM, the abundance fitness was -0.217 ± 0.03.
With TSEVNPQMLQDLQAAGFDEDMVIQALQKTNNRSIEAAIWFISKM, the abundance fitness is -0.728 ± 0.051.
With TSEVNPQMLQDLQAAGFDEDMVIQALQKTNNRSIEAAIQFISKM, the abundance fitness was -0.166 ± 0.042.
As to TSEVNPQMLQDLQAAGFDEDMVIQALQKTNNRSIEAAINFISKM, the abundance fitness is -0.111 ± 0.069.
For the variant TSEVNPQMLQDLQAAGFDEDMVIQALQKTNNRSIEAAIFFISKM, the abundance fitness was -0.884 ± 0.13.
Consider TSEVNPQMLQDLQAAGFDEDMVIQALQKTNNRSIEAAIAFISKM, for which the abundance fitness is -0.103 ± 0.035.
Take TSEVNPQMLQDLQAAGFDEDMVIQALQKTNNRSIEAAITFISKM: the abundance fitness was -0.237 ± 0.047.
Regarding TSEVNPQMLQDLQAAGFDEDMVIQALQKTNNRSIEAAIRFISKM, the abundance fitness was -0.224 ± 0.033.
In the case of TSEVNPQMLQDLQAAGFDEDMVIQALQKTNNRSIEAAIHFISKM, the abundance fitness was -0.084 ± 0.082.
With TSEVNPQMLQDLQAAGFDEDMVIQALQKTNNRSIEAAICFISKM, the abundance fitness was -0.361 ± 0.075.
The figure for TSEVNPQMLQDLQAAGFDEDMVIQALQKTNNRSIEAAISFISKM is -0.146 ± 0.036.
With TSEVNPQMLQDLQAAGFDEDMVIQALQKTNNRSIEAAIDFISKM, the abundance fitness was -0.113 ± 0.089.
With TSEVNPQMLQDLQAAGFDEDMVIQALQKTNNRSIEAAIVFISKM, the abundance fitness was -0.717 ± 0.047.
As to TSEVNPQMLQDLQAAGFDEDMVIQALQKTNNRSIEAAIKFISKM, the abundance fitness was -0.115 ± 0.056.

Values taken from the Human Domainome abundance scans (Beltran et al. 2025).
